Results reported in patent US20230048360A1.

Key:
[1] = molecular target: cell surface-bound human GPC3 on GPC3+ HepG2 cells (human) (UniProt P51654); experiment: FACS, helper phage on GPC3+ HepG2 cells, mouse anti-M13 then PE anti-mouse IgG; same sample shown in all panels of FIGS. 1A-1G
[2] = molecular target: cell surface-bound human GPC3 on GPC3+ HepG2 cells (human) (UniProt P51654); experiment: FACS, control (helper) phage on GPC3+ HepG2 cells, anti-M13 then PE anti-mouse IgG; same sample in FIGS. 3A-3D
[3] = molecular target: cell surface-bound human GPC3 on GPC3+ HepG2 cells (human) (UniProt P51654); experiment: FACS, control (helper) phage on GPC3+ HepG2 cells, anti-M13 then PE anti-mouse IgG; same sample in FIGS. 2A-2E
[4] = molecular target: cell surface-bound human GPC3 on GPC3+ HepG2 cells (human) (UniProt P51654); experiment: FACS, control mIgG1 on GPC3-positive HepG2 cells, PE anti-mouse IgG (H and L)

Substance	Median : PE-A [1]	Median : PE-A [2]	Median : PE-A [3]	Median : PE-A [4]
Negative control (helper phage)	99.4	106	556	
control mIgG1 (antibody)				93.8
